Data: publication PMC12003248, “ERCC6L2 mitigates replication stress and promotes centromere stability” (Cell Reports, 2023)
Where no end group is shown, it is not given here.

B1: 880–1,098: C-terminal YFP-ERCC6L2 fragment (protein, UniProt Q5T890 880-1098, looked up, fragment)
chain: EKKIKNTDKHCILQNVTESEDSDVICPTQYTTERFPDNSIRFKPPLEGSEDSETEHTVKTRNNDNSRNTDDKRNGIISKKLSPENTTLKSILKRKGTSDISDESDDIEISSKSRVRKRASSLRFKRIKETKKELHNSPKTMNKTNQVYAANEDHNSQFIDDYSSSDESLSVSHFSFSKQSHRPRTIRDRTSFSSKLPSHNKKNSTFIPRKPMKCSNEKV
modifications: YFP tag
notes: C-terminal YFP-ERCC6L2 fragment
B2: ERCC6L2^795−816 aPIP peptide (peptide, UniProt Q5T890 795-816, looked up)
peptide: SPGQLTLLQCGFSKLLETKCKA
notes: ERCC6L2, human, residues 795-816, atypical PIP-box; Used for ITC and for co-crystallisation with PCNA; also called ERCC6L2 aPIP peptide; aPIP(ERCC6L2); source: synthetic peptide (Genscript)
B3: Biotinylated aPIP ERCC6L2 peptide (residues 790–811) (peptide, UniProt Q5T890 790-811, looked up)
peptide: SKASSSPGQLTLLQCGFSKLLE
modifications: also: biotin, position not given here
notes: ERCC6L2, human, residues 790-811, wild-type atypical PIP-box (consensus Q-[FL]-x-L-x-Q-C-G-[FL]); also called ERCC6L2 aPIP; biotinylated ERCC6L2^790−811 peptide; source: synthetic peptide (Genscript)
B4: 728–1,098: C-terminal YFP-ERCC6L2 fragment (protein, UniProt Q5T890 728-1098, looked up, fragment)
chain: PRQPDCQECRGTEQAAEPLAKEACDLCSDFSDEEPVGATGIKTAKNKAPDSSKASSSPGQLTLLQCGFSKLLETKCKAVEDSDGNTASDDESSDEQPTCLSTEAKDAGCEKNQDSLGTSKHQKLDNILNPKEKHIFYKSEKILEQNISSKSDEKKIKNTDKHCILQNVTESEDSDVICPTQYTTERFPDNSIRFKPPLEGSEDSETEHTVKTRNNDNSRNTDDKRNGIISKKLSPENTTLKSILKRKGTSDISDESDDIEISSKSRVRKRASSLRFKRIKETKKELHNSPKTMNKTNQVYAANEDHNSQFIDDYSSSDESLSVSHFSFSKQSHRPRTIRDRTSFSSKLPSHNKKNSTFIPRKPMKCSNEKV
modifications: YFP tag
notes: as for B1
B5: GST-tagged ERCC6L2^753−819 fragment (domain or fragment, human, UniProt Q5T890 753-819, looked up)
chain: AAEPLAKEACDLCSDFSDEEPVGATGIKTAKNKAPDSSKASSSPGQLTLLQCGFSKLLETKCKAVED
B6: 820–1,098: C-terminal YFP-ERCC6L2 fragment (protein, UniProt Q5T890 820-1098, looked up, fragment)
chain: SDEQPTCLSTEAKDAGCEKNQDSLGTSKHQKLDNILNPKEKHIFYKSEKILEQNISSKSDEKKIKNTDKHCILQNVTESEDSDVICPTQYTTERFPDNSIRFKPPLEGSEDSETEHTVKTRNNDNSRNTDDKRNGIISKKLSPENTTLKSILKRKGTSDISDESDDIEISSKSRVRKRASSLRFKRIKETKKELHNSPKTMNKTNQVYAANEDHNSQFIDDYSSSDESLSVSHFSFSKQSHRPRTIRDRTSFSSKLPSHNKKNSTFIPRKPMKCSNEKV
modifications: YFP tag
notes: as for B1
B7: YFP-ERCC6L2^1053−1247: YFP-tagged C-terminal ERCC6L2 fragment (protein, UniProt Q5T890 1053-1247, looked up, fragment)
chain: FSFSKQSHRPRTIRDRTSFSSKLPSHNKKNSTFIPRKPMKCSNEKVVNQEQSYESMDKFLDGVQEVAYIHSNQNVIGSSKAENHMSRWAAHDVFELKQFSQLPANIAVCSSKTYKEKVDADTLPHTKKGQQPSEGSISLPLYISNPVNQKKKKVYHTNQTTFIIGETPKGIRRKQFEEMASYFNSSSVNEFAKHI
modifications: YFP tag
notes: YFP-tagged C-terminal ERCC6L2 fragment
B8: 797–1,098: C-terminal YFP-ERCC6L2 fragment (protein, UniProt Q5T890 797-1098, looked up, fragment)
chain: KLLETKCKAVEDSDGNTASDDESSDEQPTCLSTEAKDAGCEKNQDSLGTSKHQKLDNILNPKEKHIFYKSEKILEQNISSKSDEKKIKNTDKHCILQNVTESEDSDVICPTQYTTERFPDNSIRFKPPLEGSEDSETEHTVKTRNNDNSRNTDDKRNGIISKKLSPENTTLKSILKRKGTSDISDESDDIEISSKSRVRKRASSLRFKRIKETKKELHNSPKTMNKTNQVYAANEDHNSQFIDDYSSSDESLSVSHFSFSKQSHRPRTIRDRTSFSSKLPSHNKKNSTFIPRKPMKCSNEKV
modifications: YFP tag
notes: as for B1
B9: 701–1,098: C-terminal YFP-ERCC6L2 fragment (protein, UniProt Q5T890 701-1098, looked up, fragment)
chain: REGQVEAGIMTATTWLKEGPPAHKLEMPRQPDCQECRGTEQAAEPLAKEACDLCSDFSDEEPVGATGIKTAKNKAPDSSKASSSPGQLTLLQCGFSKLLETKCKAVEDSDGNTASDDESSDEQPTCLSTEAKDAGCEKNQDSLGTSKHQKLDNILNPKEKHIFYKSEKILEQNISSKSDEKKIKNTDKHCILQNVTESEDSDVICPTQYTTERFPDNSIRFKPPLEGSEDSETEHTVKTRNNDNSRNTDDKRNGIISKKLSPENTTLKSILKRKGTSDISDESDDIEISSKSRVRKRASSLRFKRIKETKKELHNSPKTMNKTNQVYAANEDHNSQFIDDYSSSDESLSVSHFSFSKQSHRPRTIRDRTSFSSKLPSHNKKNSTFIPRKPMKCSNEKV
modifications: YFP tag
notes: as for B1
B10: ERCC6L2^701−1247: C-terminal ERCC6L2 fragment (protein, UniProt Q5T890 701-1247, looked up, fragment)
chain: REGQVEAGIMTATTWLKEGPPAHKLEMPRQPDCQECRGTEQAAEPLAKEACDLCSDFSDEEPVGATGIKTAKNKAPDSSKASSSPGQLTLLQCGFSKLLETKCKAVEDSDGNTASDDESSDEQPTCLSTEAKDAGCEKNQDSLGTSKHQKLDNILNPKEKHIFYKSEKILEQNISSKSDEKKIKNTDKHCILQNVTESEDSDVICPTQYTTERFPDNSIRFKPPLEGSEDSETEHTVKTRNNDNSRNTDDKRNGIISKKLSPENTTLKSILKRKGTSDISDESDDIEISSKSRVRKRASSLRFKRIKETKKELHNSPKTMNKTNQVYAANEDHNSQFIDDYSSSDESLSVSHFSFSKQSHRPRTIRDRTSFSSKLPSHNKKNSTFIPRKPMKCSNEKVVNQEQSYESMDKFLDGVQEVAYIHSNQNVIGSSKAENHMSRWAAHDVFELKQFSQLPANIAVCSSKTYKEKVDADTLPHTKKGQQPSEGSISLPLYISNPVNQKKKKVYHTNQTTFIIGETPKGIRRKQFEEMASYFNSSSVNEFAKHI
modifications: YFP tag
notes: C-terminal ERCC6L2 fragment

Tests used:
U2OS cells = test: Nuclear patterns resembling replication foci of YFP-ERCC6L2 truncations; type: cell-based, human; details: YFP-tagged fragments
Text: Figure 4 ERCC6L2 contains an atypical PCNA-binding motif (A) ERCC6L2 colocalizes with PCNA at CENP-C-negative foci. U2OS cells transfected with YFP-ERCC6L2 were stained for CENP-C and PCNA after pre-extraction of soluble proteins. ERCC6L2-and PCNA-positive, but CENP-C negative foci (red arrows) are marked in zoomed images. (B) ERCC6L2 colocalizes with RPA at CENP-C-negative foci. U2OS cells transfected with YFP-ERCC6L2 were stained for CENP-C and RPA. ERCC6L2- and RPA-positive, but CENP-C-negative foci (red arrows) are marked in zoomed images. (C) Colocalization of the C-terminal ERCC6L2^701−1561 fragment with endogenous PCNA. (D) PCNA pull-down with biotinylated peptides. Biotinylated PIP-box and APIM motif peptides were bound to streptavidin beads and incubated with recombinant PCNA. Interactions were assayed by western blotting with PCNA antibody. Wild-type ZRANB3 PIP-box peptide (ZRANB3 PIP) was used as a positive control. Mutant ZRANB3 PIP-box peptide (Q519A, F525A, and F526A, ZRANB3 PIP^∗) served as a negative control. ERCC6L2 aPIP and ERCC6L2 aPIP^∗ denote atypical ERCC6L2 peptides (residues 790–811) containing the WT and the Q798A mutant sequences, respectively. (E) Expression patterns of the indicated C-terminal YFP-ERCC6L2 constructs. […] (F) PCNA pull-down with GST-tagged peptides. Wild-type and Q798A mutant versions of the GST-tagged ERCC6L2 fragments (residues 753–819) were immobilized on GST beads (shown on the left) and incubated with recombinant PCNA. Interactions were assessed by western blotting against PCNA (shown on the right). (G) Schematic representation of different ERCC6L2 fragments tested for formation of PCNA-like foci. A region at the N terminus of fragment 701–1,098 is zoomed below to show sequence alignment of different ERCC6L2 proteins. The conserved atypical PIP-box is marked in a green frame. Targeted mutation sites are indicated by red arrows. (H) Colocalization of YFP-ERCC6L2 wild type, ATPase dead K165 ERCC6L2, and aPIP^∗ mutant (Q798A, C804A, F806A) with CENP-A. N(cells) > 1,400. (I) Colocalization of YFP-ERCC6L2 wild type, ATPase dead K165 ERCC6L2, and aPIP^∗ mutant (Q798A, C804A, F806A) with CENP-B. N(cells) > 1,000. (J) Front and side views of the PCNA ring (white surface and ribbons) with the ERCC6L2 aPIP-box peptide (green sticks). (K) Overview of the hydrogen-bond interaction network between the ERCC6L2 aPIP-box peptide (green) and PCNA (white). Hydrogen bonds are shown as yellow dotted lines. (L) Hydrophobic pocket on PCNA surface (white) with conserved residues that form “hydrophobic plug” (Leu801, Cys804, and Phe806; shown as green sticks) in the ERCC6L2 aPIP-box peptide. (M) Magnified view of the boxed region in (I). (N) Magnified view of the hydrogen-bond interaction network between the ERCC6L2 aPIP-box peptide (green) and PCNA (white, labels in italics). Hydrogen bonds are shown as yellow dotted lines. Intramolecular hydrogen bonds between ERCC6L2 aPIP-box residues are also shown. (H) and (I) Box and whisker plots. […] (A), (B), (C), (E) Scale bar, 5 μm.
U2OS cells (ATCC) were grown in 24 well plates. Where indicated, cells were transfected with the YFP constructs […] with siRNAs. […] Samples were analyzed by confocal microscopy using Olympus FV1200 or Zeiss 880 Airyscan microscopes, or using EVOS M7000 Imaging System.

His-tagged human PCNA [1] = target: T1, His-tagged human PCNA (human, UniProt P12004 1-261); test: ITC; 25°C, PBS with 1 mM β-mercaptoethanol; 15 μM PCNA in the chamber, 215 μM ERCC6L2 aPIP peptide injected in 20 steps of 2 μL; single set of independent binding sites model; details: both partners purified
T1 construct: PCNA, human; cloned into the NdeI and XhoI sites of pET28a for the protein with N-terminal His-tag; The ITC methods say only 'PCNA'; the paragraph on purification of His-tagged PCNA describes the preparation for ITC; also called recombinant PCNA; source: E. coli Rosetta (pET28a), purified (Ni-NTA, Q-sepharose, Superdex S-200); not shown: His-tag, N-terminal, kept
T1 sequence (P12004 whole entry): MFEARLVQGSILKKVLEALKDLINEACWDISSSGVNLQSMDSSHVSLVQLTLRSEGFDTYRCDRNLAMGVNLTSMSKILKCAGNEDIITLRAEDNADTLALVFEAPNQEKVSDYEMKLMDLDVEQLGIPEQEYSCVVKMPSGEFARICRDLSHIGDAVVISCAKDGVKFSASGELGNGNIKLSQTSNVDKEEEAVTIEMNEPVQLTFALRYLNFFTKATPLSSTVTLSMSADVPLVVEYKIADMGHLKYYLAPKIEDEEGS

His-tagged human PCNA [2] = target: T1, His-tagged human PCNA; test: pull-down; biotinylated peptides immobilised on magnetic streptavidin beads, incubated with purified His-tagged PCNA 1 h at 4°C in 50 mM Tris-HCl pH 8, 150 mM NaCl, 1 mM DTT, 0.2% Triton X-; anti-PCNA Western blot; details: both partners purified
His-tagged human PCNA [3] = target: T1, His-tagged human PCNA; test: pull-down; GST-tagged ERCC6L2 753-819 immobilised on GST-beads, incubated with purified His-tagged PCNA 1 h at 4°C in 50 mM Tris-HCl pH 8, 150 mM NaCl, 1 mM DTT, 0.2% Triton X-; Western blot against PCNA; details: both partners purified
CENP-A = test: Colocalization of YFP-ERCC6L2 constructs with CENP-A; type: cell-based, human; details: U2OS cells; N(cells) > 1,400 for mutants
endogenous PCNA = test: Colocalization of YFP-ERCC6L2 constructs with endogenous PCNA; type: cell-based, human; details: YFP-tagged, U2OS cells
Text: Figure 4 ERCC6L2 contains an atypical PCNA-binding motif (A) ERCC6L2 colocalizes with PCNA at CENP-C-negative foci. U2OS cells transfected with YFP-ERCC6L2 were stained for CENP-C and PCNA after pre-extraction of soluble proteins. ERCC6L2-and PCNA-positive, but CENP-C negative foci (red arrows) are marked in zoomed images. (B) ERCC6L2 colocalizes with RPA at CENP-C-negative foci. U2OS cells transfected with YFP-ERCC6L2 were stained for CENP-C and RPA. ERCC6L2- and RPA-positive, but CENP-C-negative foci (red arrows) are marked in zoomed images. (C) Colocalization of the C-terminal ERCC6L2^701−1561 fragment with endogenous PCNA. (D) PCNA pull-down with biotinylated peptides. Biotinylated PIP-box and APIM motif peptides were bound to streptavidin beads and incubated with recombinant PCNA. Interactions were assayed by western blotting with PCNA antibody. Wild-type ZRANB3 PIP-box peptide (ZRANB3 PIP) was used as a positive control. Mutant ZRANB3 PIP-box peptide (Q519A, F525A, and F526A, ZRANB3 PIP^∗) served as a negative control. […] Interactions were assessed by western blotting against PCNA (shown on the right). […]
U2OS cells (ATCC) were grown in 24 well plates. […] Samples were analyzed by confocal microscopy using Olympus FV1200 or Zeiss 880 Airyscan microscopes, or using EVOS M7000 Imaging System. […]

Molecule | nuclear pattern resembling replication foci (U2OS cells) | further results
B1 | do not | 
B2 |  | Kd (His-tagged human PCNA [1]): ~6 µM
B3 |  | binding result (His-tagged human PCNA [2]): binds
B4 | show patterns reminiscent of replication foci | 
B5 |  | binding result (His-tagged human PCNA [3]): binds
B6 | do not | 
B7 |  | colocalization with CENP-A (CENP-A): formed foci marked by the CENP-A protein
B8 | show patterns reminiscent of replication foci | 
B9 | show patterns reminiscent of replication foci | 
B10 |  | colocalization with endogenous PCNA (endogenous PCNA): efficiently colocalized with endogenous PCNA
